Test results as given in patent US20140242061.

Target: T1, human macrophage mannose receptor (MMR), P22897
T1 chain: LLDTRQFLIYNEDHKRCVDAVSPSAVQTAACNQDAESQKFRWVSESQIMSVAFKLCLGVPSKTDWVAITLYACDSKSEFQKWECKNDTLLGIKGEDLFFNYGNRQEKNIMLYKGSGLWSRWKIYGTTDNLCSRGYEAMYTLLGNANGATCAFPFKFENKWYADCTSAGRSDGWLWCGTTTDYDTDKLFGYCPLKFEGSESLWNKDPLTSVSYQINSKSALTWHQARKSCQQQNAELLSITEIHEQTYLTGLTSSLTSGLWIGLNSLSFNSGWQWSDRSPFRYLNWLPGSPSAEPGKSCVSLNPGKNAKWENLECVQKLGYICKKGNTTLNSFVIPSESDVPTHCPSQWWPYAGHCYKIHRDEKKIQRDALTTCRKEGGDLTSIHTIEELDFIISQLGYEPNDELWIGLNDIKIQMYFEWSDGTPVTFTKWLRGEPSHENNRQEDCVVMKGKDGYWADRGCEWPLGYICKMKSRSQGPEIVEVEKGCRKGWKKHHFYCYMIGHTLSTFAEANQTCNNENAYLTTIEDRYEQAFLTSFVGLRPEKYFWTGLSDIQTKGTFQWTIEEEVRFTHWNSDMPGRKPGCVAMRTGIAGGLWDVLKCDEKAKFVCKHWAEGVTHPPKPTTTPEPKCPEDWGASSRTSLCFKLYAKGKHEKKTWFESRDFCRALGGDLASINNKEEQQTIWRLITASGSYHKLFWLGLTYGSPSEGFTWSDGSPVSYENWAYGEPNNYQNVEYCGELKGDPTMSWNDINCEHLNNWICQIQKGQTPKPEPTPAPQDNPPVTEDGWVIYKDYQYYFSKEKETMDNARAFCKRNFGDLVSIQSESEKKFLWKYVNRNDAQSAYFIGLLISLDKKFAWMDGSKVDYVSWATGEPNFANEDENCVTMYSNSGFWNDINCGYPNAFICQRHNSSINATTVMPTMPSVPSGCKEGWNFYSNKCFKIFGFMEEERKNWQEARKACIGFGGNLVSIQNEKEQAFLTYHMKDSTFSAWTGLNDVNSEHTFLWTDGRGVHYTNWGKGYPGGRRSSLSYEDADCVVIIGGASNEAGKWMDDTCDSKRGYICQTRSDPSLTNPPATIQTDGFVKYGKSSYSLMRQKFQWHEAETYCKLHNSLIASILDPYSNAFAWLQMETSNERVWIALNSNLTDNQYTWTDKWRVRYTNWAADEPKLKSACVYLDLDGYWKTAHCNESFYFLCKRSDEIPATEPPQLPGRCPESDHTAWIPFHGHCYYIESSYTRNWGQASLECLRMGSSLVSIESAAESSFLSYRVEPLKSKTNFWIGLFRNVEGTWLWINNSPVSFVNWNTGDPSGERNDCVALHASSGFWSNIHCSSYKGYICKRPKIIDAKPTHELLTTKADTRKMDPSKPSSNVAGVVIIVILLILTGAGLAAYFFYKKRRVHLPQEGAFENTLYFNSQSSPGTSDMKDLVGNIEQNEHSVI

B1: velaglucerase alfa (protein)
chain: ARPCIPKSFGYSSVVCVCNATYCDSFDPPTFPALGTFSRYESTRSGRRMELSMGPIQANHTGTGLLLTLQPEQKFQKVKGFGGAMTDAAALNILALSPPAQNLLLKSYFSEEGIGYNIIRVPMASCDFSIRTYTYADTPDDFQLHNFSLPEEDTKLKIPLIHRALQLAQRPVSLLASPWTSPTWLKTNGAVNGKGSLKGQPGDIYHQTWARYFVKFLDAYAEHKLQFWAVTAENEPSAGLLSGYPFQCLGFTPEHQRDFIARDLGPTLANSTHHNVRLLMLDDQRLLLPHWAKVVLTDPEAAKYVHGIAVHWYLDFLAPAKATLGETHRLFPNTMLFASEACVGSKFWEQSVRLGSWDRGMQYSHSIITNLLYHVVGWTDWNLALNPEGGPNWVRNFVDSPIIVDITKDTFYKQPMFYHLGHFSKFIPEGSQRVGLVASQKNDLDAVALMHPDGSAVVVVLNRSSKDVPLTIKDPAVGFLETISPGYSIHTYLWRRQ
- internalization rate in U937-derived macrophages (4-MU-glc activity assay), relative to imiglucerase: velaglucerase alfa is internalized up to 2.5-fold more efficiently than imiglucerase
